Results reported in patent US20160222124A1 (published 2016).
Substitutions are numbered along the chain they refer to.

B1: Antibody A (antibody, human IgG1, kappa, L234A L235A, V domains shown)
VH: EVQLVESGGGLVKPGGSLRLSCAASGFTFSDYGMHWVRQAPGKGLEWVAYISSGNRIIYYADTVKGRFTISRDNAKNSLYLQMNSLRAEDTALYYCARQDGYRYAMDYWAQGTLVTVSS
VL: DIVMTQSPDSLAVSLGERATMSCKSSQSLLNSGNQKNYLTWHQQKPGQPPKLLIYWTSTRESGVPDRFSGSGSGTDFTLTISSLQAEDVAVYYCQNDYTYPLTFGGGTKVEIKR
notes: also called 20E2-12
B2: Antibody B (antibody, V domains shown)
VH: B1 VH with L93V, A110G
VL: B1 VL with R18K, A19V, M21I, S22N
notes: also called 10E2-1
B3: Antibody C (antibody, V domains shown)
VH: QVQLVQSGAEVKKPGASVKVSCTASGFNIKDYYVHWVKQAPGQGLEWMGRIDPEDGDSKYAPKFQGKATMTADTSTSTVYMELSSLRSEDTAVYYCTTSYYVGTYGYWGQGTLVTVSS
VL: DIQMTQSPSSLSASVGDRVTITCSASSSVSYMLWFQQKPGKAPKLLIYSTSNLASGVPSRFSGSGSGTDFTLTISSLQPEDFATYYCQQRTFYPYTFGGGTKVEIKR
notes: also called 2H11-159-94
B4: 4D11 (Kirin/Astellas) anti-CD40 antibody (antibody, V domains shown)
VH: QLQLQESGPGLLKPSETLSLTCTVSGGSISSPGYYGGWIRQPPGKGLEWIGSIYKSGSTYHNPSLKSRVTISVDTSKNQFSLKLSSVTAADTAVYYCTRPVVRYFGWFDPWGQGTLVTVSS
VL: AIQLTQSPSSLSASVGDRVTITCRASQGISSALAWYQQKPGKAPKLLIYDASNLESGVPSRFSGSGSGTDFTLTISSLQPEDFATYYCQQFNSYPTFGQGTKVEIK

target: human CD40 (cellular) (human, UniProt P25942 21-277); experiment: cell-based or functional assay
Sequence (P25942 21-277): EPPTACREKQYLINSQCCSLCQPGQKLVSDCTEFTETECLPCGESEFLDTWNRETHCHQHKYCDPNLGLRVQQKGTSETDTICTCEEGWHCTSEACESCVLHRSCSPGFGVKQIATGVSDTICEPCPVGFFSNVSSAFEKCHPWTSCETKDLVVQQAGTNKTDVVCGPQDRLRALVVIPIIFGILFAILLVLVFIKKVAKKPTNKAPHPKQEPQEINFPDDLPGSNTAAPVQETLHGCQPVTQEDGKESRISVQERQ

Binder	B cell proliferation: Agonism (SI*) [SI]
B1	< 2
B2	< 2
B3	< 2
B4	< 2

target: T1, cynomolgus monkey CD40 (cynomolgus monkey, UniProt G7PG38 21-278); experiment: ratio of binding EC50 human/cyno; ratio > 1 means increased binding to Cyno compared to Human
T1 construct: whole, on cells; also called Cyno CD40; CD40 on cynomolgus B cells and platelets

Binder	Species cross-react.: Hu/Cyno Binding (EC50 ratios)
B1	3
B2	2
B3	1
